The values that follow come from patent publication US20190060473A1, “HSP90 INHIBITOR DRUG CONJUGATES” (priority 2016, published 2019).

The structures appear in SMILES notation. pIC50: −log10 of the molar value. Read-outs that look alike come from different tables or passages of the source.

Series [1] concerns HER2 expression in BT-474 human breast cancer cells. The experiment in a line: In-Cell Western assay (ICW) for HER2 expression in BT-474 cells. In kind it is cell-based. As to conditions: for pIC50: BT-474 cells, 24 h incubation, 3-fold serial dilutions, HER2 signal normalized to DRAQ5, read-out: HER2 (ICW). The procedure:
The HDCs as described herein were used in various experiments to determine their activity and properties, such as binding affinity and stability in blood. An in-Cell Western assay (ICW) for HER2 expression was carried out in BT-474 human breast cancer cells. BT-474 cells were seeded in 96-well plates at a density of 20,000 cells per well. Twenty-four hours after plating, cells were dosed with graded concentrations of HDCs using 3-fold serial dilutions and incubated for 24 h. Growth media containing drug was aspirated off. Cells were then fixed in 4% paraformaldehyde for 20 min and washed three times in 0.1% Triton X-100. After blocking for 1.5 h in Odyssey Blocking Buffer (LI-COR, Lincoln, Nebr., USA), cells were incubated with primary HER2 antibody overnight at 4° C. Wells were washed three times with 0.1% Tween-20 and incubated in secondary antibody (LI-COR, Lincoln, Nebr., USA) and DRAQ5 (CST, Beverly, Mass., USA) for 1 h. Following 3 final washes with 0.1% Tween-20, antibody-antigen complexes were visualized using the Odyssey system. For quantification, HER2 signal was normalized to DRAQ5 flourescent probe.

Series [2] in a line: Metabolic stability in mouse whole blood (LC-MS/MS). The following applies: for Mouse blood stability 1 h (% remaining): 10 μM. The series is classed as in vitro ADME. As for the experimental part:
Metabolic stability of various HDCs was tested in mouse blood. All compounds were tested at a concentration of 10 μM. The time dependent disappearance of test compound in mouse whole blood, and the release of the compound qualitatively as determined by liquid chromatography tandem mass spectrometry (LC-MS/MS), was tested at time points of 15 minutes, 30 minutes, 45 minutes and 1 hour. All compounds were tested in duplicate, and the average was taken. The results in Table 2 show the percent of test compound remaining after 1 hour.

[3] abbreviates: mouse whole blood, percent of test compound remaining after 1 hour, average of duplicate.

In the case of `CCNC(=O)c1nnc(-c2cc(C(C)C)c(O)cc2O)n1-c1ccc(CN2CCC(C(=O)NC3(C(=O)OC[C@@H](NC(=O)c4cc(-c5cc(NC(C)C)ncc5Cl)c[nH]4)c4cccc(Cl)c4)CC3)CC2)c(F)c1` [SDC-TRAP-0507, (S)-2-(4-(5-chloro-2-(isopropylamino)pyridin-4-yl)-1H-pyrrole-2-carboxamido)-2-(3-chlorophenyl)ethyl-(1-(4-(3-(2,4-dihydroxy-5-isopropylphenyl)-5-(ethylcarbamoyl)-4H-1,2,4-triazol-4-yl)-2-fluorobenzyl)piperidine-4-carboxamido)cyclopropanecarboxylate], in series [1], the pIC50 was 6.52. Besides, the “Mouse blood stability 1 h (% remaining)” value in series [2] (setting [3]) was 105%.
Consider `CC(C)Nc1cc(-c2c[nH]c(C(=O)N[C@H](COC(=O)C3(NC(=O)CCn4ccc5cc(-n6c(O)nnc6-c6cc(C(C)C)c(O)cc6O)ccc54)CC3)c3cccc(Cl)c3)c2)c(Cl)cn1` [SDC-TRAP-0508, (S)-2-(4-(5-chloro-2-(isopropylamino)pyridin-4-yl)-1H-pyrrole-2-carboxamido)-2-(3-chlorophenyl)ethyl 1-(3-(5-(3-(2,4-dihydroxy-5-isopropylphenyl)-5-hydroxy-4H-1,2,4-triazol-4-yl)-1H-indol-1-yl)propanamido)cyclopropanecarboxylate], for which the pIC50 in series [1] was 5.63. Further, the “Mouse blood stability 1 h (% remaining)” value in series [2] (mouse, blood, 1 h) was 32.4%.
Regarding `CC(C)Nc1cc(-c2c[nH]c(C(=O)N[C@H](COC(=O)C3(NC(=O)C4CCN(Cc5ccc(-n6c(O)nnc6-c6cc(C(C)C)c(O)cc6O)cc5F)CC4)CC3)c3cccc(Cl)c3)c2)c(Cl)cn1` [SDC-TRAP-0509, (S)-2-(4-(5-chloro-2-(isopropylamino)pyridin-4-yl)-1H-pyrrole-2-carboxamido)-2-(3-chlorophenyl)ethyl 1-(1-(4-(3-(2,4-dihydroxy-5-isopropylphenyl)-5-hydroxy-4H-1,2,4-triazol-4-yl)-2-fluorobenzyl)piperidine-4-carboxamido)cyclopropanecarboxylate], the pIC50 in series [1] was 5.57. The “Mouse blood stability 1 h (% remaining)” value in series [2] (setting [3]) is listed as 86.9%.
`CCNC(=O)c1nnc(-c2cc(C(C)C)c(O)cc2O)n1-c1ccc(CN2CCC(C(=O)N3CCC(CC(=O)OC[C@@H](NC(=O)c4cc(-c5cc(NC(C)C)ncc5Cl)c[nH]4)c4cccc(Cl)c4)CC3)CC2)c(F)c1` [SDC-TRAP-0512, (S)-2-(4-(5-chloro-2-(isopropylamino)pyridin-4-yl)-1H-pyrrole-2-carboxamido)-2-(3-chlorophenyl)ethyl 2-(1-(1-(4-(3-(2,4-dihydroxy-5-isopropylphenyl)-5-(ethylcarbamoyl)-4H-1,2,4-triazol-4-yl)-2-fluorobenzyl)piperidine-4-carbonyl)piperidin-4-yl)acetate]: the pIC50 in series [1] was 7.22. The “Mouse blood stability 1 h (% remaining)” value in series [2] (setting [3]) was 100%.
With `CC(C)Nc1cc(-c2c[nH]c(C(=O)N[C@H](COC(=O)C3CCN(Cc4ccc(-n5c(O)nnc5-c5cc(C(C)C)c(O)cc5O)cc4F)CC3)c3cccc(Cl)c3)c2)c(Cl)cn1` [SDC-TRAP-0517, (S)-2-(4-(5-chloro-2-(isopropylamino)pyridin-4-yl)-1H-pyrrole-2-carboxamido)-2-(3-chlorophenyl)ethyl 1-(4-(3-(2,4-dihydroxy-5-isopropylphenyl)-5-hydroxy-4H-1,2,4-triazol-4-yl)-2-fluorobenzyl)piperidine-4-carboxylate], the pIC50 in series [1] is 6.69.
On the same count and under the same terms, in the case of `CCNC(=O)c1nnc(-c2cc(C(C)C)c(O)cc2O)n1-c1ccc(CN2CCC(C(=O)OC[C@@H](NC(=O)c3cc(-c4cc(NC(C)C)ncc4Cl)c[nH]3)c3cccc(Cl)c3)CC2)c(F)c1` [SDC-TRAP-0518, (S)-2-(4-(5-chloro-2-(isopropylamino)pyridin-4-yl)-1H-pyrrole-2-carboxamido)-2-(3-chlorophenyl)ethyl 1-(4-(3-(2,4-dihydroxy-5-isopropylphenyl)-5-(ethylcarbamoyl)-4H-1,2,4-triazol-4-yl)-2-fluorobenzyl)piperidine-4-carboxylate] it was 6.98.
Turning to `CC(C)Nc1cc(-c2c[nH]c(C(=O)N[C@H](COC(=O)[C@@H](C)NC(=O)C3CCN(Cc4ccc(-n5c(O)nnc5-c5cc(C(C)C)c(O)cc5O)cc4F)CC3)c3cccc(Cl)c3)c2)c(Cl)cn1` [SDC-TRAP-0519], in series [1], the pIC50 was 5.78.
With `CCNC(=O)c1nnc(-c2cc(C(C)C)c(O)cc2O)n1-c1ccc(N(C)C2CCN(C(=O)CCC(=O)OC[C@H](O)Cn3cnc4c(c(Nc5ccc(I)cc5F)c(F)c(=O)n4C)c3=O)CC2)nc1` [SDC-TRAP-0525, (R)-3-(6-fluoro-5-((2-fluoro-4-iodophenyl)amino)-8-methyl-4,7-dioxo-7,8-dihydropyrido[2,3-d]pyrimidin-3(4H)-yl)-2-hydroxypropyl 4-(4-((5-(3-(2,4-dihydroxy-5-isopropylphenyl)-5-(ethylcarbamoyl)-4H-1,2,4-triazol-4-yl)pyridin-2-yl)(methyl)amino)piperidin-1-yl)-4-oxobutanoate], the “Mouse blood stability 1 h (% remaining)” value in series [2] (setting [3]) is on record as 10.8%.
`CC(C)c1cc(-c2nnc(O)n2-c2ccc(CN3CCC(C(=O)N4CC[C@H](C(=O)OC[C@H](O)Cn5cnc6c(c(Nc7ccc(I)cc7F)c(F)c(=O)n6C)c5=O)C4)CC3)c(F)c2)c(O)cc1O` [SDC-TRAP-0528]: in series [2] (setting [3]), the “Mouse blood stability 1 h (% remaining)” value is reported as 0%.
Turning to `CCNC(=O)c1nnc(-c2cc(C(C)C)c(O)cc2O)n1-c1ccc(C(=O)N[C@H](C(=O)N[C@@H](CC(C)C)C(=O)N(C)[C@@H](C(=O)N[C@H](C(=O)N(C)C([C@@H](C)CC)[C@@H](CC(=O)N2CCC[C@@H]2[C@@H](OC)[C@@H](C)C(=O)N[C@@H](C)[C@H](O)c2ccccc2)OC)C(C)C)C(C)C)C(C)C)cc1` (stereo partly drawn) [SDC-TRAP-0538, 4-(4-(((3R,7S,10R,13S,16S)-4-((S)-sec-butyl)-3-(2-((R)-2-((1S,2R)-3-(((1R,2S)-1-hydroxy-1-phenylpropan-2-yl)amino)-1-methoxy-2-methyl-3-oxopropyl)pyrrolidin-1-yl)-2-oxoethyl)-13-isobutyl-7,10-diisopropyl-5,11,17-trimethyl-6,9,12,15-tetraoxo-2-oxa-5,8,11,14-tetraazaoctadecan-16-yl)carbamoyl)phenyl)-5-(2,4-dihydroxy-5-isopropylphenyl)-N-ethyl-4H-1,2,4-triazole-3-carboxamide], the fraction remaining at 1 h, 10 μM in series [2] (setting [3]) stood at 118%.
Turning to `CCNC(=O)c1nnc(-c2cc(C(C)C)c(O)cc2O)n1-c1ccc(C(=O)N[C@@H](CC(C)C)C(=O)N[C@@H](CC(C)C)C(=O)N(C)[C@@H](C(=O)N[C@H](C(=O)N(C)C([C@@H](C)CC)[C@@H](CC(=O)N2CCC[C@@H]2[C@@H](OC)[C@@H](C)C(=O)N[C@@H](C)[C@H](O)c2ccccc2)OC)C(C)C)C(C)C)cc1` (stereo partly drawn) [SDC-TRAP-0539, 4-(4-(((3R,7S,10R,13S,16S)-4-((S)-sec-butyl)-3-(2-((R)-2-((1S,2R)-3-(((1R,2S)-1-hydroxy-1-phenylpropan-2-yl)amino)-1-methoxy-2-methyl-3-oxopropyl)pyrrolidin-1-yl)-2-oxoethyl)-13-isobutyl-7,10-diisopropyl-5,11,18-trimethyl-6,9,12,15-tetraoxo-2-oxa-5,8,11,14-tetraazanonadecan-16-yl)carbamoyl)phenyl)-5-(2,4-dihydroxy-5-isopropylphenyl)-N-ethyl-4H-1,2,4-triazole-3-carboxamide], in series [2] (setting [3]), the fraction remaining at 1 h, 10 μM came to 106%.
Same read-out and setting: to `CCNC(=O)c1nnc(-c2cc(C(C)C)c(O)cc2O)n1-c1ccc(C(=O)N[C@H](C(=O)N[C@@H](CCCNC(N)=O)C(=O)N(C)[C@@H](C(=O)N[C@H](C(=O)N(C)C([C@@H](C)CC)[C@@H](CC(=O)N2CCC[C@@H]2[C@@H](OC)[C@@H](C)C(=O)N[C@@H](C)[C@H](O)c2ccccc2)OC)C(C)C)C(C)C)C(C)C)cc1` (stereo partly drawn) [SDC-TRAP-0540, 4-(4-(((3R,7S,10R,13S,16S)-4-((S)-sec-butyl)-3-(2-((R)-2-((1S,2R)-3-(((1R,2S)-1-hydroxy-1-phenylpropan-2-yl)amino)-1-methoxy-2-methyl-3-oxopropyl)pyrrolidin-1-yl)-2-oxoethyl)-7,10-diisopropyl-5,11,17-trimethyl-6,9,12,15-tetraoxo-13-(3-ureidopropyl)-2-oxa-5,8,11,14-tetraazaoctadecan-16-yl)carbamoyl)phenyl)-5-(2,4-dihydroxy-5-isopropylphenyl)-N-ethyl-4H-1,2,4-triazole-3-carboxamide] belongs 55.5%.
On to `CC(C)c1cc(-c2n[nH]c(=O)n2-c2ccc3c(ccn3C)c2)c(O)cc1O` [ganetespib, reference compound], for which, in series [1] (Homo sapiens, BT-474, 24 h, read-out: HER2 (ICW, nM)), the IC50 was found to be 37 nM.
